Assay [1] has as its target LSD1, endogenous in LNCaP cells (human, UniProt O60341 1-852). Put plainly: Re-ChIP in LNCaP cells, first α-PKCβI then α-LSD1, KLK2 and FKBP5 promoters. The procedure:
(§1) ChIP and Re-ChIP experiments were performed as described³. LNCaP cells were cultured for 15 min (ChIP) or 210 min (Re-ChIP) in the presence or absence of 1×10⁻⁸M R1881 as indicated. Three days before harvesting, cells were transfected with siRNA (control for PKCβI: 5′-[…]-3′(SEQ ID NO 3); PKCβI: 5′-[…]-3′ (SEQ ID NO 4) (FIG. 3 b, c, f-i); control for PRK1: 5′-[…]-3′ (SEQ ID NO 14); PRK1: 5′-[…]-3′ (SEQ ID NO: 15) (FIG. 3 d, e); Invitrogen) using RNAifect (Qiagen) following the manufacturer's instructions. Immunoprecipitation was performed with specific antibodies (α-AR #06-680 lot 33529 (Upstate Biotechnology), α-H3K4me1 #ab8895 lot 535654, α-H3T6ph #ab14102 lot 481643, α-H3 #ab1791 lot 172452, α-PKCβI S660ph #ab23513 lot 596904 (Abcam), α-PKCβI (C-16) #sc-209 lot 481643, (Santa Cruz), α-H3K4me2 #cs-035-100 lot A391001 (Diagenode), α-PRK1³, and α-LSD1²) on protein A-Sepharose 4B (GE-Healthcare). For PCR, 2 μl out of 50 μl DNA extract was used. PCR primers for FKBP5 (+351/+443), KLK2 (−343/−90), SCN1A, SCN2A, GAPDH, and U6 were described previously^{1, 2, 6, 11}.
Therefore, it was investigated whether PKCβI is present at AR target genes and phosphorylates H3T6 in vivo. To analyse first whether PKCβI binds to promoters of AR target genes, LNCaP cells were subjected to chromatin immunoprecipitation (ChIP) in the presence or absence of the AR agonist R1881. […]

The target in assay [2] is Protein-kinase-C-related kinase 1 (PRK1), endogenous in LNCaP cells (human, UniProt Q16512 2-942). Put plainly: Re-ChIP in LNCaP cells, first α-PKCβI then α-PRK1. On the procedure:
as §1
It was recently shown by the inventors that PRK1 is a gatekeeper for regulation of AR target gene expression³. PRK1 controls multiple processes during AR-dependent transcription, such as transition from the RNA polymerase II pre-initiation to the initiation complex and demethylation at lysine 9 of histone H3 (H3K9)³. […]

Chain of Protein-kinase-C-related kinase 1 (PRK1), endogenous in LNCaP cells (Q16512 2-942 limits assumed): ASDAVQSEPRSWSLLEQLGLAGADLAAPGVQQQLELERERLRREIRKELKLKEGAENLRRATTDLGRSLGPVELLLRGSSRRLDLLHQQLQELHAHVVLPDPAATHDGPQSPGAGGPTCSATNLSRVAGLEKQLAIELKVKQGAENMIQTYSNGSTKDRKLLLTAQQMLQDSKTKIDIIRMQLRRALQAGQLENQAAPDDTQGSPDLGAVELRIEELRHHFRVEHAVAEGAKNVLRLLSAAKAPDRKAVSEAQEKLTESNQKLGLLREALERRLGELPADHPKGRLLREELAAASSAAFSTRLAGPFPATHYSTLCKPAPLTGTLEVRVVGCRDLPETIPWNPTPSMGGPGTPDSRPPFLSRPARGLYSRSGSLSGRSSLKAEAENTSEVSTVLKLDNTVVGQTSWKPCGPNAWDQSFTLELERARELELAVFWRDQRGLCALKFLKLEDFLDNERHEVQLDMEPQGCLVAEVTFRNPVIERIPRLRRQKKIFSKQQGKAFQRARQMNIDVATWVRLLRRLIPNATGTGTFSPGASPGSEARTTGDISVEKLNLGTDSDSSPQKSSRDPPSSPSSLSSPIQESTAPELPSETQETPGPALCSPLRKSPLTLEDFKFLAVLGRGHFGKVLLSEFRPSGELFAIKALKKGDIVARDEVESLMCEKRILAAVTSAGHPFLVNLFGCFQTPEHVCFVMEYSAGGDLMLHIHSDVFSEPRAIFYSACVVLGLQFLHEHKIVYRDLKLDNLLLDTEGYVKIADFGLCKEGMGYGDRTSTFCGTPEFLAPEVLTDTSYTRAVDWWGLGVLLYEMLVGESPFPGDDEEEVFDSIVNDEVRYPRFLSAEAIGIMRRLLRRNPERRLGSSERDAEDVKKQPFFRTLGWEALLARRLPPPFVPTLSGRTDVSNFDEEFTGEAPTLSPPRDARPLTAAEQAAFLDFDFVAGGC

B1: protein kinase C beta 1 (PKCβI), endogenous in LNCaP cells (enzyme)
chain: not shown
notes: here the endogenous protein on chromatin of LNCaP human prostate cancer cells; also called protein kinase C βI; PKCβ1
B1: the binding result in assay [1] and in assay [2] was “binds” in each case.

For the origin of these results see patent US20120329854A1 (UNIVERSIT TSKLINIKUM FREIBURG, published 2012).
